Results taken from PMC7076015, “An epilepsy-associated mutation in the nuclear import receptor KPNA7 reduces nuclear localization signal binding”.

T1: MBP-CTCF(F4-F8) (Homo sapiens, UniProt P49711 351-489)
T1 sequence: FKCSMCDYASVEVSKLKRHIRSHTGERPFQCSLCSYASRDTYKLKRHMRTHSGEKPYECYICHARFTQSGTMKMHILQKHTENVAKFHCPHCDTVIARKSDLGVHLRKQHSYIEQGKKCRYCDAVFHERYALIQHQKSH

B1: KPNA7 exon 7 CTCF motif WT (dsDNA)
DNA 1: ATCCAGAAGGAGGCAG
DNA 2: CTGCCTCCTTCTGGAT
B2: KPNA7 exon 7 CTCF motif c.1030G>C (dsDNA)
DNA 1: ATCCAGAAGCAGGCAG
DNA 2: CTGCCTGCTTCTGGAT

Key:
MBP-CTCF(F4-F8) [1] = target: T1, MBP-CTCF(F4-F8); assay: fluorescence anisotropy; 100 uM ZnCl2; apparent KD; 20 mM Tris pH 8, 200 mM KCl, 100 uM ZnCl2, 1 mM DTT, 25 C; 10 nM dsDNA, MBP-CTCF up to 34.5 uM; conditions: protein: recombinant; tags: MBP (N-terminal, pMAL-c2g); label: 6-FAM at 5' end of reverse strand; blunt
MBP-CTCF(F4-F8) [2] = target: T1, MBP-CTCF(F4-F8); assay: fluorescence anisotropy; 100 uM ZnCl2; apparent KD, fit bounds fixed to WT; above top protein concentration 34.5 uM; 20 mM Tris pH 8, 200 mM KCl, 100 uM ZnCl2, 1 mM DTT, 25 C; 10 nM dsDNA, MBP-CTCF up to 34.5 uM; conditions: protein: recombinant; tags: MBP (N-terminal, pMAL-c2g); label: 6-FAM at 5' end of reverse strand; blunt

Row | Binder | Kd (MBP-CTCF(F4-F8) [1]) [µM] | Kd (MBP-CTCF(F4-F8) [2]) [µM]
1 | B1 | 1.76 ± 0.084 | 
2 | B2 |  | 76 ± 16.2
